The data set deals with the molecule itself. As to the kind of experiment: cryo-EM micrographs of single particles; purified Ctpom152^FL, much of the detergent removed before rapid freezing; longer strings in up to an estimated 10% of over 2000 images.

B1: full-length pom152 of Chaetomium thermophilum (Ctpom152^FL) (natural protein, UniProt G0SB44 1-1270, looked up)
chain: MSDAPAVGAFPQTPVAARRGPARPSDSTTSTTIKRTSPLPLAPQAGRQATNISPVIPLHILDAPTQRFYAFAFYLALTAWKLYDWTQVLEEDTESFLLFLKWIAIDCVFLFGLPELRIPWLELSQPFVMVAFAIHAMFDWILMFNIGFPWQSWVIGLLKVFYDREIAISEHNVKLSSILQNSSLIMGRQIINILPEGSAILNPELQPFCLGGDRKTANIPIFFNSTIPVEVELIRTDFETGQQESIKLSKSQLRDIERRAKRESQDGDTVQSIVQFDFPVKKTGAYRLGRVLDEYKLEVQRRNPLTFVVSCPKAWVGPALSAHRCVGDLSDLSMMVEGTPPLKIKYSRMINGKDHSFHFQSLQPEGFVSPLSGLRSNNWGYDEDDISWARAQKVPVGLNESMHSSGDWQYSIDEVQDGFGNIIKYDSLADDPDGKPKPKHLTQSFVVKKRPVIRLEGCDLRHPLKVAKGKSKNLPVSYGLSGGSREDSTYQIAWQFSPIDTLTESGDHGDVVTIGTYTAKNNRDRPTISAPGLYTLKSVSASQCEGEIQEPSSCLLLNPLEPRLSLRHEEIPDTCAGNSIGLRVDLDLIGTPPFIVRYDVISNGERRSERVSIPGLRYQLDLVPRIAGHHKYIFTHVGDSIYDGQKLSGPEYVLEQDVKPAAAALIQHSTGKMSSCLGDQVTVDILLLGDPPFTLEWELIHDGKRKQFKVPNIQENSYQIKTAPLTTGGEYTLGLTSVQDKRGCRNFLQEELKISVRRQSPRAAFGQVDGKRKILAVEGSSVKLPLRLTGEGPWKVYYANLHDGSPDKPKVQEKIIKSDNGFLEVRGRGAFAITDVWDSQCHGVVDPKASRFDVDWFPRPELSVALTHGVSKTETGFQLQDVCEGDVSGFEVALKGTPPFTVEYEVRHHPLQGSSSLSKKKIEGVVGKEAIQADTSKAGTYTYKFTALEDDLYSSNRGFQPIIVKQNVNRKPTASFVKPGQTFKYCKSEQDNEDGIPITLTGVPPFFLEVEIKHQSAAVPEIYRTPAIDSHSYELKIPRHHLRLGTQHIRIRDIRDGSGCHSTSGILSGPSVQVQLFEAPTIYPLETRTDYCVGERISYTLSGQAPFEVWYTFNGVELKAKSPNTNFRRIAESPGEFTITSVSDKASECRAPVSITKTIHPLPAVRISKGKSVRVDIHEGGEVDILFEFFGTPPFEFTYTRSTNARKGQKSQVLETRHDISHEHSKVIKASQEGTYEVVAIKDKYCSFSTQAVVGLEGGKKDKTKKLKVY
notes: also called FL Ctpom152; full-length Ctpom152; source: insect cells, purified with detergent extract; much of the detergent removed before cryo-EM
B1: the binding result is “binds”.

The record behind these values is paper PMC6141588, “Electron microscopy of Chaetomium pom152 shows the assembly of ten-bead string” (Cell Discovery, 2018).
